# Laboratory results as given in PMC11039692, “SRY-Box transcription factor 9 triggers YAP nuclear entry via direct interaction in tumors” (Signal Transduction and Targeted Therapy, 2024).
# B1: SOX9-HMG domain (aa 98–181) (domain or fragment)
# chain: not shown
# notes: SOX9 HMG domain, residues 98-181; The limits 98-181 are printed for the MST with YAP protein; source: Escherichia coli, purified
# B2: peptide S-A1 (SOX9 amino acids 111–126) (peptide, UniProt P48436 111-126, looked up)
# peptide: AFMVWAQAARRKLADQ
# B3: nNLS-containing fragment of SOX9 (aa 94–126) (peptide, UniProt P48436 94-126, looked up)
# peptide: RVNGSSKNKPHVKRPMNAFMVWAQAARRKLADQ
# Assays:
# [1] = biological target: T1, His-tagged YAP purified from Escherichia coli (human, UniProt P46937 1-504); assay: MST; SOX9-HMG (aa 98–181) with YAP protein; which of the two was labelled is not told; 50 mM Tris-HCl pH 7.4, 150 mM NaCl, 0.05% Tween-20; room temperature; conditions: both partners purified
# T1 construct: YAP, recombinant; Labelled with RED-tris-NTA 2nd Generation dye where it was the labelled partner; also called YAP protein; source: Escherichia coli, purified
# T1 sequence (P46937 whole entry, the tested form may be a part): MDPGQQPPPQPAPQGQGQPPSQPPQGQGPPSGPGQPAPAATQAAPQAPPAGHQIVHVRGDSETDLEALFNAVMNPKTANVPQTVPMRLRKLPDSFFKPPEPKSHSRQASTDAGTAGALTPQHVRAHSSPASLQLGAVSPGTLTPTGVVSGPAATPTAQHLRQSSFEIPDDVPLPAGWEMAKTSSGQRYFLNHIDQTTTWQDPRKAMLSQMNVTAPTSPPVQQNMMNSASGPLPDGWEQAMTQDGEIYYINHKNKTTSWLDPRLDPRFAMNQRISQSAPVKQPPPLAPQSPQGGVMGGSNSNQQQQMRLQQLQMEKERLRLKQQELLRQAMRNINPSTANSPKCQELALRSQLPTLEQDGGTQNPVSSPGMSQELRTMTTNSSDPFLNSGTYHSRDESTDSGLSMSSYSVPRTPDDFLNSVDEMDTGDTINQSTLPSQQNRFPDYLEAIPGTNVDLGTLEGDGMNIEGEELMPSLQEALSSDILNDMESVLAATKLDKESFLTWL
# [2] = biological target: T1, His-tagged YAP purified from …; assay: MST; His-tagged YAP labelled with 25 nM RED-tris-NTA 2nd Generation dye, SOX9 peptide serially diluted; 50 mM Tris-HCl pH 7.4, 150 mM NaCl, 0.05% Tween-20; room temperature; 40% LED power, medium MST power; conditions: both partners purified
Binder,Kd [1],Kd [2]
B1,0.54 µM,–
B2,–,2.2 µM
B3,–,1.1 µM
